B1: TolA (natural protein, E. coli, UniProt P19934 1-421, looked up)
chain: MSKATEQNDKLKRAIIISAVLHVILFAALIWSSFDENIEASAGGGGGSSIDAVMVDSGAVVEQYKRMQSQESSAKRSDEQRKMKEQQAAEELREKQAAEQERLKQLEKERLAAQEQKKQAEEAAKQAELKQKQAEEAAAKAAADAKAKAEADAKAAEEAAKKAAADAKKKAEAEAAKAAAEAQKKAEAAAAALKKKAEAAEAAAAEARKKAATEAAEKAKAEAEKKAAAEKAAADKKAAAEKAAADKKAAEKAAAEKAAADKKAAAEKAAADKKAAAAKAAAEKAAAAKAAAEADDIFGELSSGKNAPKTGGGAKGNNASPAGSGNTKNNGASGADINNYAGQIKSAIESKFYDASSYAGKTCTLRIKLAPDGMLLDIKPEGGDPALCQAALAAAKLAKIPKPPSQAVYEVFKNAPLDFKP
B2: TolQ (natural protein, E. coli)
chain: MTDMNILDLFLKASLLVKLIMLILIGFSIASWAIIIQRTRILNAAAREAEAFEDKFWSGIELSRLYQESQGKRDNLTGSEQIFYSGFKEFVRLHRANSHAPEAVVEGASRAMRISMNRELENLETHIPFLGTVGSISPYIGLFGTVWGIMHAFIALGAVKQATLQMVAPGIAEALIATAIGLFAAIPAVMAYNRLNQRVNKLELNYDNFMEEFTAILHRQAFTVSESNKG

What was measured:
TolQ = biological target: B2; assay: co-purification
[1] = biological target: T1, TolR with an octahistidine-tag at the C-terminus (E. coli, UniProt P0ABV6 1-142); assay: co-purification
T1 sequence: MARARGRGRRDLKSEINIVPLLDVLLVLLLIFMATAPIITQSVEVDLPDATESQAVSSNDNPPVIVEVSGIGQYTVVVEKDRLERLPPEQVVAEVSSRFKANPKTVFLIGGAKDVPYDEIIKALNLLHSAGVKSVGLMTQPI

cryo-EM structure = biological target: the molecule itself; assay: cryo-EM structure

In the case of B1, the “stoichiometry N” value (TolQ) is reported as ~4.5 TolQ per TolA and the “stoichiometry N” value [1] is reported as ~1.5 TolR per TolA.

B2 was tested, and the “stoichiometry N” value (cryo-EM structure) was 5.

Source: paper doi:10.1101/2024.11.27.625625 (bioRxiv, 2024)
